From US11891642B2, “Biocatalytic techniques” (HYPHA DISCOVERY LIMITED, priority 2018, dated 2024)

Test: Concentration of cytochrome P450 in cell-free extract by carbon monoxide difference spectrum (Omura and Sato)
Conditions: mutant P450SriC12 expressed in E. coli BL21 (DE3)
Protocol: Measurement is performed according to the method of Omura and Sato et al. (J Biol Chem, 239. 1964, 2370). That is to say, cytochrome P450 is analyzed quantitatively using the following formula, based on the difference in the absorbance of the reduced CO versus the reduced difference spectrum at 450 nm and 490 nm.
Measurement of the concentration of cytochrome P450 were performed according to the method of Omura and Sato et al. (J Biol Chem, 239. 1964, 2370). Cytochrome P450 concentrations of cell-free extracts of induced E. coli BL21 (DE3) Rosetta2 & Tuner cells harbouring either pHD05-SriC01, pHD02-SriC12-SriF05, pHD05-SriC14-SriF06, pHD05-SriC20, pHD05-SriC22 or pHD05-SriC51-SriF08 are shown in Table 2. Carbon monoxide difference spectra for P450SriC01, P450SriC12, P450SriC14, P450SriC20, P450SriC22 and P450SriC51 are shown in FIGS. 9, 10, 11, 19, 20 & 21 respectively.
The native and codon optimised P450sriC12 and ferredoxinsriF05 in pHD02-SriC12-SriF05 and pHD02-SriC12CO-SriF05CO respectively were introduced into E. coli BL21 (DE3). The recombinant strains were cultured and proteins were induced as in Example 2. The cell-free extract material was obtained as in Example 3 and carbon monoxide difference spectrums were measure to calculate the concentration of cytochrome P450.
The resulting plasmids containing the new mutants genes were transformed into recombinant E. coli strains for expression as described in Example 1, cultured and induced as described in Example 2, extracted and processed as described in Example 3 and tested for biocatalytic activity as described in Example 5 above. The carbon monoxide difference spectrum result of R63W mutant of codon optimised P450SriC12 is shown in FIG. 14 and the cytochrome P450 concentration of mutant P450SriC12 are shown in Table 5.

| Molecule | P450 concentration [µM] |
| --- | --- |
| Mutant 10 L171I: L171I mutant of codon optimised cytochrome SriC12, SEQ ID NO: 235 (protein, L171I mutant of SriC12) MTEALPFPQDRTCPYDPPAGYQPLRDSRPLSRVTLYDGRPAWVVTGHAESRALLTDPRLSADRQNPAFPSPAPRFETLRKVRTPLLGVDDPEHNTQRRMLIPSFSVKRAAALRPRIQEIVDRLLDAMEQQGPPAELVSAFALPVPSMVICALLGVPYADHELFEGLSRTLIQSADPQEVTEARDKLEDYFTALVERKRKEPGDGLLDELIAERLDSGELGHRELVRMAMLLLVAGHETTSNMLSLGTFTLLEHPEQFAALRADPSLLPAAVEELLRFLSIADGMVRVATEDIEIGGVTIRADDGVIFSTSVVNRDGAAYASPDTLDWERSARHHVAFGFGVHQCLGQNLARAEMEIAFGALFARFPGLRLAVPAAEIPVKPAHALQGLVELPVTW | 12.4 |
| Mutant 1 R63W: R63W mutant of codon optimised cytochrome SriC12, SEQ ID NO: 231 (protein, R63W mutant of SriC12) MTEALPFPQDRTCPYDPPAGYQPLRDSRPLSRVTLYDGRPAWVVTGHAESRALLTDPRLSADWQNPAFPSPAPRFETLRKVRTPLLGVDDPEHNTQRRMLIPSFSVKRAAALRPRIQEIVDRLLDAMEQQGPPAELVSAFALPVPSMVICALLGVPYADHELFEGLSRTLLQSADPQEVTEARDKLEDYFTALVERKRKEPGDGLLDELIAERLDSGELGHRELVRMAMLLLVAGHETTSNMLSLGTFTLLEHPEQFAALRADPSLLPAAVEELLRFLSIADGMVRVATEDIEIGGVTIRADDGVIFSTSVVNRDGAAYASPDTLDWERSARHHVAFGFGVHQCLGQNLARAEMEIAFGALFARFPGLRLAVPAAEIPVKPAHALQGLVELPVTW | 17.6 |
| Mutant 20 R74Y L171A R183W: R74Y L171A R183W mutant of codon optimised cytochrome SriC12, SEQ ID NO: 255 (protein, R74Y L171A R183W mutant of SriC12) MTEALPFPQDRTCPYDPPAGYQPLRDSRPLSRVTLYDGRPAWVVTGHAESRALLTDPRLSADRQNPAFPSPAPYFETLRKVRTPLLGVDDPEHNTQRRMLIPSFSVKRAAALRPRIQEIVDRLLDAMEQQGPPAELVSAFALPVPSMVICALLGVPYADHELFEGLSRTLAQSADPQEVTEAWDKLEDYFTALVERKRKEPGDGLLDELIAERLDSGELGHRELVRMAMLLLVAGHETTSNMLSLGTFTLLEHPEQFAALRADPSLLPAAVEELLRFLSIADGMVRVATEDIEIGGVTIRADDGVIFSTSVVNRDGAAYASPDTLDWERSARHHVAFGFGVHQCLGQNLARAEMEIAFGALFARFPGLRLAVPAAEIPVKPAHALQGLVELPVTW | 14.1 |
| Mutant 2 R63Y: R63Y mutant of codon optimised cytochrome SriC12, SEQ ID NO: 233 (protein, R63Y mutant of SriC12) MTEALPFPQDRTCPYDPPAGYQPLRDSRPLSRVTLYDGRPAWVVTGHAESRALLTDPRLSADYQNPAFPSPAPRFETLRKVRTPLLGVDDPEHNTQRRMLIPSFSVKRAAALRPRIQEIVDRLLDAMEQQGPPAELVSAFALPVPSMVICALLGVPYADHELFEGLSRTLLQSADPQEVTEARDKLEDYFTALVERKRKEPGDGLLDELIAERLDSGELGHRELVRMAMLLLVAGHETTSNMLSLGTFTLLEHPEQFAALRADPSLLPAAVEELLRFLSIADGMVRVATEDIEIGGVTIRADDGVIFSTSVVNRDGAAYASPDTLDWERSARHHVAFGFGVHQCLGQNLARAEMEIAFGALFARFPGLRLAVPAAEIPVKPAHALQGLVELPVTW | 6.2 |
| Mutant 17 R63W R74Y: R63W R74Y mutant of codon optimised cytochrome SriC12, SEQ ID NO: 251 (protein, R63W R74Y mutant of SriC12) MTEALPFPQDRTCPYDPPAGYQPLRDSRPLSRVTLYDGRPAWVVTGHAESRALLTDPRLSADWQNPAFPSPAPYFETLRKVRTPLLGVDDPEHNTQRRMLIPSFSVKRAAALRPRIQEIVDRLLDAMEQQGPPAELVSAFALPVPSMVICALLGVPYADHELFEGLSRTLLQSADPQEVTEARDKLEDYFTALVERKRKEPGDGLLDELIAERLDSGELGHRELVRMAMLLLVAGHETTSNMLSLGTFTLLEHPEQFAALRADPSLLPAAVEELLRFLSIADGMVRVATEDIEIGGVTIRADDGVIFSTSVVNRDGAAYASPDTLDWERSARHHVAFGFGVHQCLGQNLARAEMEIAFGALFARFPGLRLAVPAAEIPVKPAHALQGLVELPVTW | 27.6 |
| Mutant 14 L230I: L230I mutant of codon optimised cytochrome SriC12, SEQ ID NO: 237 (protein, L230I mutant of SriC12) MTEALPFPQDRTCPYDPPAGYQPLRDSRPLSRVTLYDGRPAWVVTGHAESRALLTDPRLSADRQNPAFPSPAPRFETLRKVRTPLLGVDDPEHNTQRRMLIPSFSVKRAAALRPRIQEIVDRLLDAMEQQGPPAELVSAFALPVPSMVICALLGVPYADHELFEGLSRTLLQSADPQEVTEARDKLEDYFTALVERKRKEPGDGLLDELIAERLDSGELGHRELVRMAMILLVAGHETTSNMLSLGTFTLLEHPEQFAALRADPSLLPAAVEELLRFLSIADGMVRVATEDIEIGGVTIRADDGVIFSTSVVNRDGAAYASPDTLDWERSARHHVAFGFGVHQCLGQNLARAEMEIAFGALFARFPGLRLAVPAAEIPVKPAHALQGLVELPVTW | 3.5 |
| Mutant 18 R63W L171A: R63W L171A mutant of codon optimised cytochrome SriC12, SEQ ID NO: 253 (protein, R63W L171A mutant of SriC12) MTEALPFPQDRTCPYDPPAGYQPLRDSRPLSRVTLYDGRPAWVVTGHAESRALLTDPRLSADWQNPAFPSPAPRFETLRKVRTPLLGVDDPEHNTQRRMLIPSFSVKRAAALRPRIQEIVDRLLDAMEQQGPPAELVSAFALPVPSMVICALLGVPYADHELFEGLSRTLAQSADPQEVTEARDKLEDYFTALVERKRKEPGDGLLDELIAERLDSGELGHRELVRMAMLLLVAGHETTSNMLSLGTFTLLEHPEQFAALRADPSLLPAAVEELLRFLSIADGMVRVATEDIEIGGVTIRADDGVIFSTSVVNRDGAAYASPDTLDWERSARHHVAFGFGVHQCLGQNLARAEMEIAFGALFARFPGLRLAVPAAEIPVKPAHALQGLVELPVTW | 22.4 |
| Mutant 22 R63W R74Y L171A: R63W R74Y L171A mutant of codon optimised cytochrome SriC12, SEQ ID NO: 257 (protein, R63W R74Y L171A mutant of SriC12) MTEALPFPQDRTCPYDPPAGYQPLRDSRPLSRVTLYDGRPAWVVTGHAESRALLTDPRLSADWQNPAFPSPAPYFETLRKVRTPLLGVDDPEHNTQRRMLIPSFSVKRAAALRPRIQEIVDRLLDAMEQQGPPAELVSAFALPVPSMVICALLGVPYADHELFEGLSRTLAQSADPQEVTEARDKLEDYFTALVERKRKEPGDGLLDELIAERLDSGELGHRELVRMAMLLLVAGHETTSNMLSLGTFTLLEHPEQFAALRADPSLLPAAVEELLRFLSIADGMVRVATEDIEIGGVTIRADDGVIFSTSVVNRDGAAYASPDTLDWERSARHHVAFGFGVHQCLGQNLARAEMEIAFGALFARFPGLRLAVPAAEIPVKPAHALQGLVELPVTW | 19.9 |
